# In IntAct's records for PubMed 15086532:
# B1: Delta-type opioid receptor (Homo sapiens), P41143 (parent)
# chain: MEPAPSAGAELQPPLFANASDAYPSACPSAGANASGPPGARSASSLALAIAITALYSAVCAVGLLGNVLVMFGIVRYTKMKTATNIYIFNLALADALATSTLPFQSAKYLMETWPFGELLCKAVLSIDYYNMFTSIFTLTMMSVDRYIAVCHPVKALDFRTPAKAKLINICIWVLASGVGVPIMVMAVTRPRDGAVVCMLQFPSPSWYWDTVTKICVFLFAFVVPILIITVCYGLMLLRLRSVRLLSGSKEKDRSLRRITRMVLVVVGAFVVCWAPIHIFVIVWTLVDIDRRDPLVVAALHLCIALGYANSSLNPVLYAFLDENFKRCFRQLCRKPCGRPDPSSFSRAREATARERVTACTPSDGPGGGAAA
# Variants of: B1
# Conditions: with gasp1_human GPRASP1, Q5JY77
# gasp1_human GPRASP1, Q5JY77, sequence (Q5JY77 whole entry): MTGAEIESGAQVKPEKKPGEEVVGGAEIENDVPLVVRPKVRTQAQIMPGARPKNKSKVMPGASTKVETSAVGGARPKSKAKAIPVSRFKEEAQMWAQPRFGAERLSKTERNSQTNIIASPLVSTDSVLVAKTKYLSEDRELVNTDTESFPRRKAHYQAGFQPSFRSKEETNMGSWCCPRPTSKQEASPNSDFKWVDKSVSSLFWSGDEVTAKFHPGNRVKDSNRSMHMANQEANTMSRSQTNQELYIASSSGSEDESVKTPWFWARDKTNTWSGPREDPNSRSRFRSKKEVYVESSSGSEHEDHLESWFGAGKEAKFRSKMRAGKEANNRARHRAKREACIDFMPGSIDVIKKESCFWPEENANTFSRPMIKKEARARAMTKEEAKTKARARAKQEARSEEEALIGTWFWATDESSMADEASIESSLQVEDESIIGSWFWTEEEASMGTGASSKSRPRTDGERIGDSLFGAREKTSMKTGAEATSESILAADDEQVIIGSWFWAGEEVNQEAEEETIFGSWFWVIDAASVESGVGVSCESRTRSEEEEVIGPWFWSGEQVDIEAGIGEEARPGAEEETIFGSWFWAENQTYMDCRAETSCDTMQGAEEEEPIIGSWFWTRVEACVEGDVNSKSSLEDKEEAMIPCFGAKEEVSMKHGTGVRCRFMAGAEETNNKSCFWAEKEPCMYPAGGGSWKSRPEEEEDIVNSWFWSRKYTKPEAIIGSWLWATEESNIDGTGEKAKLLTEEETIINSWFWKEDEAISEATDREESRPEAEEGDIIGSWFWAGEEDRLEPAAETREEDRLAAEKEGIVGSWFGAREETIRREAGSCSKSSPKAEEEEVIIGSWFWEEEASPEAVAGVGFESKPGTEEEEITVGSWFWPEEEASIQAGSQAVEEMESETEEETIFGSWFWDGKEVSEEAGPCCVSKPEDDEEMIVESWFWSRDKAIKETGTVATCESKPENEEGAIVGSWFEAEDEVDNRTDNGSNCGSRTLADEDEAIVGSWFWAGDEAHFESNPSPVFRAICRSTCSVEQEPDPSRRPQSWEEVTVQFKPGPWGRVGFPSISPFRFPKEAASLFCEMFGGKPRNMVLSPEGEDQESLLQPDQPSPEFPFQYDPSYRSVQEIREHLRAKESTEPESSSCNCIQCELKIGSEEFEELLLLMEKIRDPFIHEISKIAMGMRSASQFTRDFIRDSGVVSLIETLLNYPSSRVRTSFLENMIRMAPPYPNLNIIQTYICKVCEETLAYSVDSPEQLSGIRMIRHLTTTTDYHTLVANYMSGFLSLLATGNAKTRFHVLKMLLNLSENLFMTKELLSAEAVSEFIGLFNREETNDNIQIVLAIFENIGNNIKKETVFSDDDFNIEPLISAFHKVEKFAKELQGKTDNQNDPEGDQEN
row,Variant,effect of a mutation on the interaction
1,F325A;K326A,decreasing interaction
